In the assay the target is T1, LgTrip 3092 (SEQ ID NO: 19).
T1 construct: also called LgTrip 3092 His; ATG 3092
As to the kind of experiment: tripartite luminescence complementation (with pep86 as third part).

From patent US20200270586A1 (PROMEGA, published 2020) come the findings set out here.

B1: SmTrip9 pep245 (peptide)
peptide: GSMLFRVTINS
With B1, the binding result was “binds”.
